Patent publication US20260028403A1 (Zymeworks, published 2026)

What was measured:
[1] = biological target: T1, Recombinant human/cynomolgus/rhesus macaque CD28 mouse IgG2a Fc fusion protein (Acro Biosystems) (human/cynomolgus/rhesus macaque, UniProt P10747 19-152); experiment: SPR, in-format anti-CD28 variants, huCD28
T1 construct: bought; also called huCD28

[2] = biological target: T2, CD28 on primary human T cells (human, UniProt P10747 19-220); experiment: cell-based or functional assay
[3] = biological target: T2, CD28 on primary human T cells; experiment: cell-based or functional assay; remark: listed apart in the source
[4] = biological target: T1, Recombinant human/cynomolgus/rhesus …; experiment: SPR Biacore T200, CD28-mIgG2a Fc on CM5, construct injected, 1:1 model;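 also: fc fusion captured by amine coupling, run at 25 °C in HEPES buffer pH 7.4, association 140-500 s then dissociation 600-1200 s, values averaged over three independent runs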
[5] = biological target: T3, Recombinant human CD3 epsilon/delta heterodimer, his tag protein (Acro Biosystems) (human, UniProt P07766 23-126; P04234 22-105); experiment: SPR Biacore T200, CD3 e/d-his on CM5, construct injected, 1:1 model;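 also: measured at 25 °C in HEPES-buffered saline with EDTA and Tween 20 at pH 7.4, values are means of three independent runs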
T3 construct: bought

Row | Binder | Fold-change from WT [1] [fold] | Kd [1] [nM] | koff [1] [s⁻¹] | kon [1] [M⁻¹ s⁻¹] | IL-2 maximum cytokine, T cells alone [3] [pg/mL] | IL-2 maximum cytokine, T cells with SNU 601 cells [3] [pg/mL] | TNFa maximum cytokine, T cells alone [3] [pg/mL] | TNFa maximum cytokine, T cells with SNU 601 cells [3] [pg/mL] | Kd [4] [nM] | koff [4] [s⁻¹] | kon [4] [M⁻¹ s⁻¹] | Kd [5] [nM] | koff [5] [s⁻¹] | kon [5] [M⁻¹ s⁻¹] | IC50, T cell-dependent cytotoxicity on SNU 601 [2] [pM] | Maximum Killing (%), SNU 601 [2] [%]
1 | v37683 (trispecific antibody, human IgG1, kappa, L234A L235A, also called v37638 format, CD28 VH P1058A) heavy 1: not shown heavy 2: QVQLVESGGGLVQPGGSLRLSCSVSGIDLSSNPMIWVRQAPGKGLQYIGIIDTDGSTYYADWAKGRFTISKDSTTVYLQINSPRAEDTAVYYCARRLHGSSNGYYDDLWGQGTLVTVSSGGGGSGGGGSGGGGSGGGGSDGQMTQSPSSVSASVGDRVTITCQASQSIYSYLSWYQQKPGQRPKLLIYKASTLASGVPSRFSGSGSGTDFTLTISSVQPEDFATYYCQQGYTVTNVDKNTFGGGTKVEIKAAEPKSSDKTHTCPPCPAPEAAGGPSVFLFPPKPKDTLMISRTPEVTCVVVSVSHEDPEVKFNWYVDGVEVHNAKTKPREEQYNSTYRVVSVLTVLHQDWLNGKEYKCKVSNKALPAPIEKTISKAKGQPREPQVYVLPPSRDELTKNQVSLLCLVKGFYPSDIAVEWESNGQPENNYLTWPPVLDSDGSFFLYSKLTVDKSRWQQGNVFSCSVMHEALHNHYTQKSLSLSPG light: DIQMTQSPSSLSASVGDRVTITCRASESVEYYVTSLMQWYQQKPGKAPKLLIYAASNVDSGVPSRFSGSGSGTDFTLTISSLQPEDIATYYCQQSRKVPFTFGGGTKVEIKRTVAAPSVFIFPPSDEQLKSGTASVVCLLNNFYPREAKVQWKVDNALQSGNSQESVTEQDSKDSTYSLSSTLTLSKADYEKHKVYACEVTHQGLSSPVTKSFNRGEC | 2.2 | 48.6 | 0.00466 | 95800 | 82.9 | 4030 | 25 | 513 | – | – | – | – | – | – | 0.25 | 88.6
2 | v37641 (trispecific antibody, human IgG1, kappa, L234A L235A, second heavy chain is Fc only; Het Fc, FcKO; also called Cldn18.2xCD28xCD3 trispecific) heavy 1: QVQLVESGGGLVQPGGSLRLSCSVSGIDLSSNPMIWVRQAPGKGLQYIGIIDTDGSTYYADWAKGRFTISKDSTTVYLQINSPRAEDTAVYYCARRLHGSSNGYYDDLWGQGTLVTVSSGGGGSGGGGSGGGGSGGGGSDGQMTQSPSSVSASVGDRVTITCQASQSIYSYLSWYQQKPGQRPKLLIYKASTLASGVPSRFSGSGSGTDFTLTISSVQPEDFATYYCQQGYTVTNVDKNTFGGGTKVEIKGGGGSGQVQLQESGPGLVKPSETLSLTCAVSGFSLTSYGVHWIRQPPGKGLEWLGVIWPGGGTNFNSALMSRLTISEDTSKNQVSLKLSSVTAADTAVYYCARDRAYGNYLYAMDYWGQGTLVTVSSASTKGPSVFPLAPSSKSTSGGTAALGCLVKDYFPEPVTVSWNSGALTSGVHTFPAVLQSSGLYSLSSVVTVPSSSLGTQTYICNVNHKPSNTKVDKKVEPKSCDKTHTCPPCPAPEAAGGPSVFLFPPKPKDTLMISRTPEVTCVVVSVSHEDPEVKFNWYVDGVEVHNAKTKPREEQYNSTYRVVSVLTVLHQDWLNGKEYKCKVSNKALPAPIEKTISKAKGQPREPQVYVYPPSRDELTKNQVSLTCLVKGFYPSDIAVEWESNGQPENNYKTTPPVLDSDGSFALVSKLTVDKSRWQQGNVFSCSVMHEALHNHYTQKSLSLSPGGGGGSGNFMLTQPHSVSESPGKTVTISCKRNTGNIGSNYVNWYQQHEGSSPTTIIYRNDKRPDGVSDRFSGSIDRSSKSASLTISNLKTEDEADYFCQSYSSGFIFGGGTKLTVLGGGGSGGGGSGGGGSGGGGSEVQLVESGGGLVQPGGSLRLSCAASGVTFNYYGMSWIRQAPGKGLEWVASITSSGGRIYYPDSVKGRFTISRENTQKTLYLQMNSLRAEDTAVYYCTLDGRDGWVAYWGQGTLVTVSS heavy 2: EPKSSDKTHTCPPCPAPEAAGGPSVFLFPPKPKDTLMISRTPEVTCVVVSVSHEDPEVKFNWYVDGVEVHNAKTKPREEQYNSTYRVVSVLTVLHQDWLNGKEYKCKVSNKALPAPIEKTISKAKGQPREPQVYVLPPSRDELTKNQVSLLCLVKGFYPSDIAVEWESNGQPENNYLTWPPVLDSDGSFFLYSKLTVDKSRWQQGNVFSCSVMHEALHNHYTQKSLSLSPG light: DIQMTQSPSSLSASVGDRVTITCRASESVEYYVTSLMQWYQQKPGKAPKLLIYAASNVDSGVPSRFSGSGSGTDFTLTISSLQPEDIATYYCQQSRKVPFTFGGGTKVEIKRTVAAPSVFIFPPSDEQLKSGTASVVCLLNNFYPREAKVQWKVDNALQSGNSQESVTEQDSKDSTYSLSSTLTLSKADYEKHKVYACEVTHQGLSSPVTKSFNRGEC | – | – | – | – | – | – | – | – | 31.8 | 0.00206 | 66500 | 225 | 0.0134 | 60800 | – | –
3 | v37684 (trispecific antibody, human IgG1, kappa, L234A L235A, also called v37638 format, CD28 VH G1064S) heavy 1: not shown heavy 2: QVQLVESGGGLVQPGGSLRLSCSVSGIDLSSNPMIWVRQAPGKGLQYIGIIDTDGSTYYADWAKGRFTISKDSTTVYLQINSPRAEDTAVYYCARRLHGSSNGYYDDLWGQGTLVTVSSGGGGSGGGGSGGGGSGGGGSDGQMTQSPSSVSASVGDRVTITCQASQSIYSYLSWYQQKPGQRPKLLIYKASTLASGVPSRFSGSGSGTDFTLTISSVQPEDFATYYCQQGYTVTNVDKNTFGGGTKVEIKAAEPKSSDKTHTCPPCPAPEAAGGPSVFLFPPKPKDTLMISRTPEVTCVVVSVSHEDPEVKFNWYVDGVEVHNAKTKPREEQYNSTYRVVSVLTVLHQDWLNGKEYKCKVSNKALPAPIEKTISKAKGQPREPQVYVLPPSRDELTKNQVSLLCLVKGFYPSDIAVEWESNGQPENNYLTWPPVLDSDGSFFLYSKLTVDKSRWQQGNVFSCSVMHEALHNHYTQKSLSLSPG light: DIQMTQSPSSLSASVGDRVTITCRASESVEYYVTSLMQWYQQKPGKAPKLLIYAASNVDSGVPSRFSGSGSGTDFTLTISSLQPEDIATYYCQQSRKVPFTFGGGTKVEIKRTVAAPSVFIFPPSDEQLKSGTASVVCLLNNFYPREAKVQWKVDNALQSGNSQESVTEQDSKDSTYSLSSTLTLSKADYEKHKVYACEVTHQGLSSPVTKSFNRGEC | 6.4 | 143 | 0.0113 | 80600 | 293 | 3430 | 56.2 | 516 | – | – | – | – | – | – | 0.34 | 89.3

Further lines, with some results ahead:

Row | Fold-change from WT [1] [fold] | Kd [1] [nM] | koff [1] [s⁻¹] | kon [1] [M⁻¹ s⁻¹] | IL-2 maximum cytokine, T cells alone [3] [pg/mL] | IL-2 maximum cytokine, T cells with SNU 601 cells [3] [pg/mL] | TNFa maximum cytokine, T cells alone [3] [pg/mL] | TNFa maximum cytokine, T cells with SNU 601 cells [3] [pg/mL] | Kd [4] [nM] | koff [4] [s⁻¹] | kon [4] [M⁻¹ s⁻¹] | Kd [5] [nM] | koff [5] [s⁻¹] | kon [5] [M⁻¹ s⁻¹] | Binder | IC50, T cell-dependent cytotoxicity on SNU 601 [2] [pM] | Maximum Killing (%), SNU 601 [2] [%]
4 | 28.4 | 631 | 0.029 | 67900 | 190 | 3400 | 25 | 409 | – | – | – | – | – | – | v37685 (trispecific antibody, human IgG1, kappa, L234A L235A, also called v37638 format, CD28 VL V1035G) heavy 1: not shown heavy 2: QVQLVESGGGLVQPGGSLRLSCSVSGIDLSSNPMIWVRQAPGKGLQYIGIIDTDGSTYYADWAKGRFTISKDSTTVYLQINSPRAEDTAVYYCARRLHGSSNGYYDDLWGQGTLVTVSSGGGGSGGGGSGGGGSGGGGSDGQMTQSPSSVSASVGDRVTITCQASQSIYSYLSWYQQKPGQRPKLLIYKASTLASGVPSRFSGSGSGTDFTLTISSVQPEDFATYYCQQGYTVTNVDKNTFGGGTKVEIKAAEPKSSDKTHTCPPCPAPEAAGGPSVFLFPPKPKDTLMISRTPEVTCVVVSVSHEDPEVKFNWYVDGVEVHNAKTKPREEQYNSTYRVVSVLTVLHQDWLNGKEYKCKVSNKALPAPIEKTISKAKGQPREPQVYVLPPSRDELTKNQVSLLCLVKGFYPSDIAVEWESNGQPENNYLTWPPVLDSDGSFFLYSKLTVDKSRWQQGNVFSCSVMHEALHNHYTQKSLSLSPG light: DIQMTQSPSSLSASVGDRVTITCRASESVEYYGTSLMQWYQQKPGKAPKLLIYAASNVDSGVPSRFSGSGSGTDFTLTISSLQPEDIATYYCQQSRKVPFTFGGGTKVEIKRTVAAPSVFIFPPSDEQLKSGTASVVCLLNNFYPREAKVQWKVDNALQSGNSQESVTEQDSKDSTYSLSSTLTLSKADYEKHKVYACEVTHQGLSSPVTKSFNRGEC | 0.81 | 88.7
5 | 1.3 | 28.1 | 0.00252 | 89300 | 388 | 4180 | 41 | 613 | – | – | – | – | – | – | v37686 (trispecific antibody, human IgG1, kappa, L234A L235A, also called v37638 format, CD28 VL D1068E) heavy 1: not shown heavy 2: QVQLVESGGGLVQPGGSLRLSCSVSGIDLSSNPMIWVRQAPGKGLQYIGIIDTDGSTYYADWAKGRFTISKDSTTVYLQINSPRAEDTAVYYCARRLHGSSNGYYDDLWGQGTLVTVSSGGGGSGGGGSGGGGSGGGGSDGQMTQSPSSVSASVGDRVTITCQASQSIYSYLSWYQQKPGQRPKLLIYKASTLASGVPSRFSGSGSGTDFTLTISSVQPEDFATYYCQQGYTVTNVDKNTFGGGTKVEIKAAEPKSSDKTHTCPPCPAPEAAGGPSVFLFPPKPKDTLMISRTPEVTCVVVSVSHEDPEVKFNWYVDGVEVHNAKTKPREEQYNSTYRVVSVLTVLHQDWLNGKEYKCKVSNKALPAPIEKTISKAKGQPREPQVYVLPPSRDELTKNQVSLLCLVKGFYPSDIAVEWESNGQPENNYLTWPPVLDSDGSFFLYSKLTVDKSRWQQGNVFSCSVMHEALHNHYTQKSLSLSPG light: DIQMTQSPSSLSASVGDRVTITCRASESVEYYVTSLMQWYQQKPGKAPKLLIYAASNVESGVPSRFSGSGSGTDFTLTISSLQPEDIATYYCQQSRKVPFTFGGGTKVEIKRTVAAPSVFIFPPSDEQLKSGTASVVCLLNNFYPREAKVQWKVDNALQSGNSQESVTEQDSKDSTYSLSSTLTLSKADYEKHKVYACEVTHQGLSSPVTKSFNRGEC | 0.09 | 88.5
